One molecule from patent US20100129369A1 (Eli Lilly, published 2010) can be followed below.

One assay addresses T1, Human c-Met-Flis-Fc ECD (human).
T1 construct: also called human c-Met extracellular domain (ECD)-Fc-Flis fusion; Human cMet-ECD-Fc-Flis
The assay can be described thus: ELISA, coated ECD-Fc, antibody 462.963 ng/mL. How it is done:
(§1) Wells of 96-well EIA/RIA high binding plates (Costar, #2592) are coated with 100 μL of 1 μg/mL human c-Met extracellular domain (ECD)-Fc-Flis fusion (SEQ ID NO:72), RON-ECD-Fc (R&D Systems, #1947-MS), or PlexinA2-ECD-Fc (Abnova, Taipei, Taiwan #H00005362-P01) in coating buffer (BioFX Labs, # COAT-1000-01) overnight at 4° C. […] After the plates are washed, 100 μL/well of substrate solution (BioFx, #TMBW-1000-01) are added and the plates are incubated for 10 min. at room temperature. 100 μL/well of stop solution (BioFx, # LSTP-1000-01) are added to stop the reaction. The colorimetric signals are developed and read at 450 nm using a SpectraMax 190 plate reader (Molecular Devices, Sunnyvale, Calif.). c-Met antibody binding to c-Met, RON and PlexinA2 ECDs is proportional to color signal production.
For orientation: An ELISA detects its analyte on a solid surface through an enzyme-linked reagent.

The target of assay [1] is T2, RON-ECD-Fc (human, UniProt Q04912 25-957).
T2 construct: extracellular domain; Bought reagent; not shown: Fc part of the bought fusion
T2 sequence (looked up): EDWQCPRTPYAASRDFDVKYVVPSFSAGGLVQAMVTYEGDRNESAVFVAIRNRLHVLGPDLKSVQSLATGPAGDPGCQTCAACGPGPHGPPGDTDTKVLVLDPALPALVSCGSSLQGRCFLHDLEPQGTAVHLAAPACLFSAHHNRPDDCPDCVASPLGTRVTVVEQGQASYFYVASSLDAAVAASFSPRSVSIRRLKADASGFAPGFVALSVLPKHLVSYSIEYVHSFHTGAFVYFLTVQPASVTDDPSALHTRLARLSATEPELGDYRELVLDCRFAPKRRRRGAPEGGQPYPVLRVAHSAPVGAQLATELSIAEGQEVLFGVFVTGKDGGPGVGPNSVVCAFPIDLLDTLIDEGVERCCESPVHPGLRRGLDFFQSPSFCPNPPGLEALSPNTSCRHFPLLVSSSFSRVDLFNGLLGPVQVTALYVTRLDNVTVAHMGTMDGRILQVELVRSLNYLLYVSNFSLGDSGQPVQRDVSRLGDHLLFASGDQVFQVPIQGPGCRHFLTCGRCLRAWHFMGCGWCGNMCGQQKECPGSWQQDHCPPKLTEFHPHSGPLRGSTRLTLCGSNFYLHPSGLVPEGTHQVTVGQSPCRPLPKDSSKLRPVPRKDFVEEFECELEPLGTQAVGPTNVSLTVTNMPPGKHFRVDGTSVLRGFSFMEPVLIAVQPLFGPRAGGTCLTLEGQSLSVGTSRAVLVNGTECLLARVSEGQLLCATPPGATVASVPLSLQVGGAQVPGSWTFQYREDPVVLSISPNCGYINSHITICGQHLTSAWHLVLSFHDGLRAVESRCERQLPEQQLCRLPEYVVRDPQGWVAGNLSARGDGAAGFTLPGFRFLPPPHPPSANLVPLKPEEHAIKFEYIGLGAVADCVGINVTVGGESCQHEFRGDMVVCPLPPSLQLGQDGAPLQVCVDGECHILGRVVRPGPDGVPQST
The assay can be described thus: ELISA, coated ECD-Fc, antibody 462.963 ng/mL. As to the method:
as §1

For assay [2], the target named is T3, PlexinA2-ECD-Fc (human, UniProt O75051 35-1237).
T3 construct: extracellular domain; Bought reagent
T3 sequence (looked up): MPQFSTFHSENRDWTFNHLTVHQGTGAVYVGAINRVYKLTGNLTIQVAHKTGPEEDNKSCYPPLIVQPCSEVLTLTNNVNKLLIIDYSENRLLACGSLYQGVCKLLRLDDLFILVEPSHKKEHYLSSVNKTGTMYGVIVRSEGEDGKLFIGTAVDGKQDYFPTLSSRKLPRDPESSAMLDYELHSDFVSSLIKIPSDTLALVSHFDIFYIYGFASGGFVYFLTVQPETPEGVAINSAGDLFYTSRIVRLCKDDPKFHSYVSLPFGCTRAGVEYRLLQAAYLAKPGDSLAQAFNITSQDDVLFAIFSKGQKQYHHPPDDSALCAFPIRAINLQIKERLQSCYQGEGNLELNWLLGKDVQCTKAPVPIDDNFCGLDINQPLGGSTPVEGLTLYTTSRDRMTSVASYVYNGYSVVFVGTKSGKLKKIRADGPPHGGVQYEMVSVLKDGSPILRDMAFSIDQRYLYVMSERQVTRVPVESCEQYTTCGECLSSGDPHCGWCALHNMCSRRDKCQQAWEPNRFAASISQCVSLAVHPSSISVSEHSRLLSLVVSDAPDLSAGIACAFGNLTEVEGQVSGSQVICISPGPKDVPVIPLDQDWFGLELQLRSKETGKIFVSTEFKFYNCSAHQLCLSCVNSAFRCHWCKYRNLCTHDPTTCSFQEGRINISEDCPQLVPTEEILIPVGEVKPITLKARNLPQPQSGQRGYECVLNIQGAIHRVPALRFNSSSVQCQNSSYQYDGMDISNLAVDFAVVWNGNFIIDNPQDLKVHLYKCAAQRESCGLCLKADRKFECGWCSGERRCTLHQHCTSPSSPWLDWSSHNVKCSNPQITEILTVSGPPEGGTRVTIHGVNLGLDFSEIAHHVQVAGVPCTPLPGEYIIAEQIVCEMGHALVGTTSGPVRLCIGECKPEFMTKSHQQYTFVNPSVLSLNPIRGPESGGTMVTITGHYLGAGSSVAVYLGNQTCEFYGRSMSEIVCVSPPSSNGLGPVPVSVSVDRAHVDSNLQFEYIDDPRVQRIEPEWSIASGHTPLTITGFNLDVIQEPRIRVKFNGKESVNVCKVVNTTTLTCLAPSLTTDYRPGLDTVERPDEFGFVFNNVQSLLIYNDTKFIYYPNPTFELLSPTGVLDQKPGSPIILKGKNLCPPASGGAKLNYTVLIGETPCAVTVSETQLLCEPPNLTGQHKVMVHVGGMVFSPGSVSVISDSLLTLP
The assay can be described thus: ELISA, coated ECD-Fc, antibody 462.963 ng/mL. As to the method: as §1

Assay [3] addresses T2, RON-ECD-Fc. The assay can be described thus: ELISA, coated ECD-Fc, antibody 77.160 ng/mL. How it is done: as §1
Assay [4] has as its target T3, PlexinA2-ECD-Fc. In words: ELISA, coated ECD-Fc, antibody 77.160 ng/mL. As to the method:
as §1

The target in another assay is T4, mouse c-Met ECD (mouse, UniProt P16056 25-931).
T4 construct: extracellular domain
T4 sequence (P16056 25-931): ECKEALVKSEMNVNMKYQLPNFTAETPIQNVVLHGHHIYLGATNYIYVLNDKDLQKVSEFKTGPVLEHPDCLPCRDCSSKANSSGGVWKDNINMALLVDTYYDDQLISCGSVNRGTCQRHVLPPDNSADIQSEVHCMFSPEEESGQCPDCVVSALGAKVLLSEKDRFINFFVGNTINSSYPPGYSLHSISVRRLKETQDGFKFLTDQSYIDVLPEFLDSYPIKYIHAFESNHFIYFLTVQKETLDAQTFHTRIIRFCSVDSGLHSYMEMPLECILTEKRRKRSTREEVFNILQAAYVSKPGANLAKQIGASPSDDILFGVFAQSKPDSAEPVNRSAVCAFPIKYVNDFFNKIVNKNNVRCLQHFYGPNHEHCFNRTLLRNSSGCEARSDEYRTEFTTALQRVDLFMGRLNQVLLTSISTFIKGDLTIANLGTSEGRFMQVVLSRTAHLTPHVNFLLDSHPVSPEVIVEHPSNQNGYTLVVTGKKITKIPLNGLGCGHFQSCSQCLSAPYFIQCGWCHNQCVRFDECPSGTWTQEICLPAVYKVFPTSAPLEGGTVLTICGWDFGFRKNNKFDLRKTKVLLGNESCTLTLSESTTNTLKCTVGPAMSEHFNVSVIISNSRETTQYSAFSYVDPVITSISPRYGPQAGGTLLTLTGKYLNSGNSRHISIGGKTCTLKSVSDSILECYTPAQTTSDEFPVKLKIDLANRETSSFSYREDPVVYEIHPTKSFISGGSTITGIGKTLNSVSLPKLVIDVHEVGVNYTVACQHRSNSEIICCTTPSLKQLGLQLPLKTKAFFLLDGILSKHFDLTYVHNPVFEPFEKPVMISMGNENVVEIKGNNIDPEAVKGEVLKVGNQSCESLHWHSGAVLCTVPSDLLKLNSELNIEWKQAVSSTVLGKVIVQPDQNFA
The assay can be described thus: ELISA, coated ECD (data not shown).

The target in assay [5] is T2, RON-ECD-Fc. The assay can be described thus: ELISA, coated ECD-Fc, antibody 0.060 ng/mL.

T1 sequence (chain, as listed by the source limits assumed): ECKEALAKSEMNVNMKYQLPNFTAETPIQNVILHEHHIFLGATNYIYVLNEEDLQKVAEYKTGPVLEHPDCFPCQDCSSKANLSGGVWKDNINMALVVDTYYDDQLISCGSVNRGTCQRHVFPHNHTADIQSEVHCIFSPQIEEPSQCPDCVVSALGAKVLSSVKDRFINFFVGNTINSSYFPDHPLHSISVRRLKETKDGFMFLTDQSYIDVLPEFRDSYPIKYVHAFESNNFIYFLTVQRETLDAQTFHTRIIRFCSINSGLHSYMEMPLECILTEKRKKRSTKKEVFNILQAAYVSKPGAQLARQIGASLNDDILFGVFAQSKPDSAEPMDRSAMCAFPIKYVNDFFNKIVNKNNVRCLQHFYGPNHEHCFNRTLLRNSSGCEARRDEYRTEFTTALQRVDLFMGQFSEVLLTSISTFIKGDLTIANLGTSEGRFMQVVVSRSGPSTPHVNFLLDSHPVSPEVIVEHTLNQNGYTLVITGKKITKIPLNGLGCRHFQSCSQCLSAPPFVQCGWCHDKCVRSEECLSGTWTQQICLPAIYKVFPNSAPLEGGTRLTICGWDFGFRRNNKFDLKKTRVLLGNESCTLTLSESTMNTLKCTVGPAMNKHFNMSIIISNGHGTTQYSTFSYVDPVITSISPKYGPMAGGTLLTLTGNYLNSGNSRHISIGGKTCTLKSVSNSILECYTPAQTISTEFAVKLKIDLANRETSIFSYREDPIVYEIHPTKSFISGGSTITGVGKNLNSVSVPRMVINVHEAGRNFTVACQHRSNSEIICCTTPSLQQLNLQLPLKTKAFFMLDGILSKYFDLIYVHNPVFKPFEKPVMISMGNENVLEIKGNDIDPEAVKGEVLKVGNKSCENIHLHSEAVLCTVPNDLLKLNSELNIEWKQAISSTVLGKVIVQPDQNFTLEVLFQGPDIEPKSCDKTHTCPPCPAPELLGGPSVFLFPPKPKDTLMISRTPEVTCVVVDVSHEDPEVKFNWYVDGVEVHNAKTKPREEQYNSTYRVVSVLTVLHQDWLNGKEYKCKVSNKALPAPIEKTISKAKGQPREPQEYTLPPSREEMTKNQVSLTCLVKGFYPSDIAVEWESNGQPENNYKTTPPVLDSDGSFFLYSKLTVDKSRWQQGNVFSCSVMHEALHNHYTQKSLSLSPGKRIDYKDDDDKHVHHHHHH

B1: C8-6 (antibody, human IgG2, kappa, V domains shown)
VH: QVQLVQSGAEVKKPGASVKVSCKASGYTFTDYYMHWVRQAPGQGLEWMGRVNPNRGGTTYNQKFEGRVTMTTDTSTSTAYMELRSLRSDDTAVYYCARTNWLDYWGQGTTVTVSS
VL: DIQMTQSPSSLSASVGDRVTITCSVSSSVSSIYLHWYQQKPGKAPKLLIYSTSNLASGVPSRFSGSGSGTDFTLTISSLQPEDFATYYCIQYSGYPLTFGGGTKVEIKR
notes: Called IgG4, kappa; also called Mab C8-6
Consider B1, for which the “Average A450 nm” value in the assay with Human c-Met-Flis-Fc ECD turned out to be 4 A450 nm; with RON-ECD-Fc [1], 0.088 A450 nm; in the assay with PlexinA2-ECD-Fc [2], 0.086 A450 nm; with RON-ECD-Fc [3], 0.09 A450 nm; in the assay with PlexinA2-ECD-Fc [4], 0.078 A450 nm; with RON-ECD-Fc [5], 0.087 A450 nm. The binding result with mouse c-Met ECD is “no binding (tested: 100 nM)”.
